Test [1] has as its target T1, F protein of hMPV A MARM virus G264R/Q434H (human metapneumovirus subtype A). Description: cell-based or functional assay.
The target of test [2] is T2, F protein of hMPV A MARM virus K138Q (human metapneumovirus subtype A). Description: cell-based or functional assay.
Test [3] concerns the target T3, F protein of hMPV A MARM virus V231A/G264R (human metapneumovirus subtype A). Description: cell-based or functional assay.
Test [4] addresses T1, F protein of hMPV A MARM virus …. Description: cell-based or functional assay. This is another data set of the same source.
In test [5] the target is T2, F protein of hMPV A MARM virus K138Q. Kind of test: cell-based or functional assay. The source holds these as a separate data set.
The target of test [6] is T4, F protein of hMPV A virus (human metapneumovirus subtype A). Kind of test: cell-based or functional assay.
Test [7] addresses T3, F protein of hMPV A MARM virus …. Kind of test: cell-based or functional assay. The source holds these as a separate data set.
The target in test [8] is T5, F protein of hMPV B virus (human metapneumovirus subtype B). Kind of test: cell-based or functional assay.
The target in test [9] is T4, F protein of hMPV A virus. Description: cell-based or functional assay. The source holds these as a separate data set.
Test [10] deals with T5, F protein of hMPV B virus. Description: cell-based or functional assay. This is another data set of the same source.
Test [11] addresses T4, F protein of hMPV A virus. Kind of test: cell-based or functional assay. This is another data set of the same source.
Test [12] addresses T6, unprocessed hMPV PreF trimeric antigen (human metapneumovirus strain B2).
T6 construct: also called unprocessed hMPV WT PreF trimer; hMPV WT trimer
Kind of test: ELISA; Ni-NTA plate coated with Expi293 supernatant containing the His-tagged antigen; antibody titrated; OD450. A general note: In an ELISA, binding on a coated surface is turned into a signal by an enzyme label.

The target of test [13] is T7, T143K.
T7 construct: also called unprocessed hMPV PreF T143K
Described as above.

Test [14] deals with T8, N135T G139N Y233N.
T8 construct: also called unprocessed hMPV PreF N135T/G139N/Y233N
Described as above.

The next test concerns the target T9, T61A, S175R, A185D.
T9 construct: also called unprocessed hMPV PreF T61A/S175R/A185D
The test is described as above.

A further test has as its target T10, K312Q.
T10 construct: also called unprocessed hMPV PreF K312Q
The test is described as above.

In test [15] the target is T6, unprocessed hMPV PreF trimeric antigen. The description is as above. This is another data set of the same source.
The target in test [16] is T7, T143K. The test is described as above. This is another data set of the same source.
In test [17] the target is T8, N135T G139N Y233N. Described as above. This is another data set of the same source.
Another test deals with T11, D296K.
T11 construct: also called unprocessed hMPV PreF D296K
The test is described as above.

The next test deals with T12, D414K.
T12 construct: also called unprocessed hMPV PreF D414K
Described as above.

The target of test [18] is T6, unprocessed hMPV PreF trimeric antigen. The test is described as above. This is another data set of the same source.

Like-named read-outs stand apart in the source and are kept apart here.

Usually EC50 (read off the curve) stands for the midpoint of the concentration-response curve.

B1: M4B06 (antibody, V domains shown)
VH: EVQLLESGGGFVQPGGSLRLSCVVTGFTFSNYAMCWVRQAPGKGPEWVSGIGGSVGTTYYADSVKGRFTISRDNSKNTLYLQMSGLRAEDTARYYCAKVPSFFVFEDGFDMWGQGTVVTVSS
VL: QSVLTQPPSASGNPGQRVTISCYGSGSNIGNNYVHWFRQLPGTAPRLLIYNTDILVPGVPDRFSGSESGTSASLAISGLQSGDEADYFCAAWDDTLNGYVFGPGTTVTVL
For B1, the figures for the “fold reduction of neutralization potency against the MARM virus” value in [1], in [2] and in test [3] were 70 fold, 49 fold and 52 fold, respectively. The “IC50, hMPV plaque reduction neutralization” value worked out at 0.7 µg/mL in test [4], 0.49 µg/mL in test [5], 0.0103 µg/mL in [6] and 0.524 µg/mL in test [7]. Moreover, the “PRNT IC50” value in test [8] turned out to be 0.0022 µg/mL; in test [9] it was 0.0035 µg/mL.

B2: M4B06 Fab (Fab, V domains shown)
VH: EVQLLESGGGFVQPGGSLRLSCVVTGFTFSNYAMCWVRQAPGKGPEWVSGIGGSVGTTYYADSVKGRFTISRDNSKNTLYLQMSGLRAEDTARYYCAKVPSFFVFEDGFDMWGQGTVVTVSS
VL: QSVLTQPPSASGNPGQRVTISCYGSGSNIGNNYVHWFRQLPGTAPRLLIYNTDILVPGVPDRFSGSESGTSASLAISGLQSGDEADYFCAAWDDTLNGYVFGPGTTVTVL
For B2, the “IC50, hMPV plaque reduction neutralization” value in test [6] was found to be 0.076 µg/mL.

B3: M8C10 (antibody, V domains shown)
VH: QVQLVESGGGVVQPGRSLRLSCAASGFTFTTYTMHWVRQAPGKGLEWVALISSDGNNKYYADSVKGRFTISRDNSKNTLYLQMSSLRAEDTAVYYCARGYYSGGDAFDVWGQGTMVTVSS
VL: DIQMTQSPSTLSASVGDRVTITCRASQTITIWLAWYQQKPGKAPKLLIYDAVSLESGVPSRFRGSGSGTDFTLTISSLQPDDFATYYCQQYNNYPYTFGQGTKLEIKR
Consider B3, for which, in [10], the “virus neutralization IC50, MPV strain B2” value was 660 nM. Besides, in test [11], the “virus neutralization IC50, MPV strain A1” value worked out at 371 nM. Further, the “PRNT IC50” value was found to be 0.66 µg/mL in test [8] and 0.37 µg/mL in [9].

B4: M3C06 (antibody, V domains shown)
VH: QVQLVQSGAEVKKPGSSVKVSCKAYGGTLSNYAISWVRQAPGQGLHWMGRIIPVMNVANYADNFQGRVTITADKSTSTAYMELSSLRSEDAAIYYCATARGLGSLEGGDAFDVWGQGTMLTVSS
VL: DIVMTQSPDSVAVSLGERATISCKSSLSLLYSSNNKNYLVWYQQKPGQPPKLLFYWASTRESGVPDRFSASGSGTDFTLTISSLQAEDVAVYYCQQYYSTPITFGQGTRLEIR
notes: IgG
Consider B4, for which, in [12], the “EC50 (read off the curve)” value was roughly 0.009 µg/mL. The binding result with T143K [13] is on record as “no binding (tested: about 3000 ng/mL)”; in the test with N135T G139N Y233N [14], “binds”. Also, the “PRNT IC50” value in test [8] is 0.0617 µg/mL; in test [9], greater than 10 µg/mL.

B5: M2A05 (antibody, V domains shown)
VH: QITLKESGPTLVKPTQTLTLTCTVSGFSLSANSVGVAWFRQPPGKAPEWLGVIYWDDDKRFSPSLKTRLSITKDASTSQVVLRLTNVSPLDTATYYCVRKHYDLLQWGQGAPVTVSS
VL: EIVLTQSPGTLSLSPGEGATLSCRASRSVNSDYIAWYQHKPGLAPRLLIYAASTRATDIPDRFRADVSGTDFTLTIDRLEPDDFAVYYCQQYGSAVWTFGQGTRVEVK
notes: IgG
Regarding B5, the “EC50 (read off the curve)” value in the test with T61A, S175R, A185D was roughly 0.004 µg/mL; with K312Q, roughly 0.003 µg/mL; in [15] it was roughly 0.004 µg/mL; in the test with T143K [16], roughly 0.003 µg/mL; with N135T G139N Y233N [17] it was roughly 0.003 µg/mL; with D296K, roughly 0.07 µg/mL. The results for the “PRNT IC50” value in test [8] and in [9] were 0.0657 µg/mL and greater than 10 µg/mL, respectively.

B6: M4A10 (antibody, V domains shown)
VH: QVQLVQSGAEVKKPGASVKVSCKASGYTFNGHYLHWVRQAPGQGLEWMGWINPNSGGTDYAQRFQGRVTMTRGTSISTAYMELSRLTSDDTAVYFCARDNFGFWSASSGRHNWLDSWGQGTLVIVSS
VL: NFMLTQPHSVSESPGKTVTISCTRSTGNIASNYVQWYQQRPGSSPTTVIYEDNQRPSAVPDRFSGSIDSSSNSASLTVSGLRTEDEADYYCQSYDSGHHVVFGGGTKLTVL
notes: IgG
With B6, the “EC50 (read off the curve)” value in [12] is roughly 0.006 µg/mL; in the test with T143K [13], roughly 0.002 µg/mL. Also, the binding result in the test with N135T G139N Y233N [14] is “binds”. Further, the “PRNT IC50” value in [8] was 0.0301 µg/mL; in [9] it was greater than 10 µg/mL.

B7: M1A04 (antibody, V domains shown)
VH: EVQLVESGGGLVRPGGSLRLSCAASGFNVRNYYMSWVRQAPGKGLEWISVIYGGGTTFYAGSVKGRFTISRDDSKSTLFLQMNSLRADDTAVYYCARDPGTVMSTENLQGMDVWGQGTTVTVSS
VL: DIQMTQSPSSLSASVGDRVTITCRASQTIRSYLNWYQQKPGKAPNLLIYAATSLQSGVPSRFSGSGSGTDFTLTISSLQPEDSATYYCQQSFSTLYSFGQGTRLEIK
notes: IgG
With B7, the binding result with D414K is reported as “binds”. Besides, the concentration giving a half-maximal response (EC50 (read off the curve)) in test [18] is roughly 0.005 µg/mL. In addition, the figures for the “PRNT IC50” value in test [8] and in test [9] were 0.128 µg/mL and 0.0872 µg/mL, respectively.
